{
  "source": "paper PMC2791412",
  "molecular_target": "BIQ, fluorescent reporter containing an IQ domain sequence derived from neuromodulin (UniProt P17677)",
  "sequence (P17677 31-60)": "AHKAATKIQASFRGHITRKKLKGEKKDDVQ",
  "experiment": "other fluorescence titration",
  "data": [
    {"substance": "calmodulin (native vertebrate CaM) (from UniProt P0DP23 1-149) (natural protein)", "values": [
      {"measurement": "stoichiometry N", "result": 1}
    ]}
  ]
}
